Where a chain is given by its changes, count along the chain named. Names may count otherwise.
Target: the molecule itself
Assay: SEC; ternary complex co-expressed in E. coli, captured on Ni-NTA by His6-Atg29, then Superose 6 10/300GL in 20 mM Tris pH 8, 200 mM NaCl, 0.1 mM TCEP; peak fractions analysed by SDS-PAGE

B1: Atg17, wild type (natural protein, Saccharomyces cerevisiae, UniProt Q06410 1-417, looked up)
chain: MNEADVTKFVNNARKTLTDAQLLCSSANLRIVDIKKKLSSWQLSISKLNFLIVGLRQQGKFLYTILKEGIGTKLIQKQWNQAVLVVLVDEMKYWQYEITSKVQRLDGIVNELSISEKDDTDPSKLGDYISRDNVNLLNDKLKEVPVIERQIENIKLQYENMVRKVNKELIDTKLTDVTQKFQSKFGIDNLMETNVAEQFSRELTDLEKDLAEIMNSLTQHFDKTLLLQDKKIDNDEREELFKVVQGDDKELYNIFKTLHEVIDDVDKTILNLGQFLQAKIKEKTELHSEVSEIINDFNRNLEYLLIFKDISNLIDSFKNSCTQDIQTTKELCEFYDNFEESYGNLVLEAKRRKDVANRMKTILKDCEKQLQNLDAQDQEERQNFIAENGTYLPETIWPGKIDDFSSLYTLNYNVKNP
notes: Atg17, Saccharomyces cerevisiae; The Atg17 chain of m1; source: E. coli BL21 (DE3), co-expressed with Atg31 and His6-Atg29 from pST39, purified (Ni-NTA, Superose 6)
Q: Does B1 bind?
A: binds

B2: Atg17 mutant M1 (K318D/Q326D/K329D) (natural protein, Saccharomyces cerevisiae, UniProt Q06410 1-417, looked up)
chain: B1 chain with K318D, Q326D, K329D
notes: Atg17, Saccharomyces cerevisiae; The Atg17 chain of m2; source: E. coli BL21 (DE3), co-expressed with Atg31 and His6-Atg29 from pST39, purified (Ni-NTA, Superose 6)
Q: Does B2 bind?
A: binds

B3: Atg17 mutant M5 (K92D/L141D) (natural protein, Saccharomyces cerevisiae, UniProt Q06410 1-417, looked up)
chain: B1 chain with K92D, L141D
notes: Atg17, Saccharomyces cerevisiae; The Atg17 chain of m6; source: E. coli BL21 (DE3), co-expressed with Atg31 and His6-Atg29 from pST39, purified (Ni-NTA, Superose 6)
Q: Does B3 bind?
A: binds

B4: Atg17 mutant M2 (K318D/K329D/Y93E/W94E) (natural protein, Saccharomyces cerevisiae, UniProt Q06410 1-417, looked up)
chain: B1 chain with Y93E, W94E, K318D, K329D
notes: Atg17, Saccharomyces cerevisiae; The Atg17 chain of m3; source: E. coli BL21 (DE3), co-expressed with Atg31 and His6-Atg29 from pST39, purified (Ni-NTA, Superose 6)
Q: Does B4 bind?
A: binds

B5: Atg17 mutant M4 (K164D/K173D/R299D) (natural protein, Saccharomyces cerevisiae, UniProt Q06410 1-417, looked up)
chain: B1 chain with K164D, K173D, R299D
notes: Atg17, Saccharomyces cerevisiae; The Atg17 chain of m5; source: E. coli BL21 (DE3), co-expressed with Atg31 and His6-Atg29 from pST39, purified (Ni-NTA, Superose 6)
Q: Does B5 bind?
A: binds

B6: Atg17 mutant M3 (K8D/R14D/K249D) (natural protein, Saccharomyces cerevisiae, UniProt Q06410 1-417, looked up)
chain: B1 chain with K8D, R14D, K249D
notes: Atg17, Saccharomyces cerevisiae; The Atg17 chain of m4; source: E. coli BL21 (DE3), co-expressed with Atg31 and His6-Atg29 from pST39, purified (Ni-NTA, Superose 6)
Q: Does B6 bind?
A: binds
